{
  "source": "patent US20140072613A1",
  "about": "“Compositions and Methods for Treating Cutaneous Scarring” (priority 2012, published 2014)",
  "assay_in_all_cases": "cell-based or functional assay",
  "key": {"AMPKα1(h) (human)": {"target": "AMPKα1(h) (human) (UniProt Q13131)", "sequence (Q13131 whole entry)": "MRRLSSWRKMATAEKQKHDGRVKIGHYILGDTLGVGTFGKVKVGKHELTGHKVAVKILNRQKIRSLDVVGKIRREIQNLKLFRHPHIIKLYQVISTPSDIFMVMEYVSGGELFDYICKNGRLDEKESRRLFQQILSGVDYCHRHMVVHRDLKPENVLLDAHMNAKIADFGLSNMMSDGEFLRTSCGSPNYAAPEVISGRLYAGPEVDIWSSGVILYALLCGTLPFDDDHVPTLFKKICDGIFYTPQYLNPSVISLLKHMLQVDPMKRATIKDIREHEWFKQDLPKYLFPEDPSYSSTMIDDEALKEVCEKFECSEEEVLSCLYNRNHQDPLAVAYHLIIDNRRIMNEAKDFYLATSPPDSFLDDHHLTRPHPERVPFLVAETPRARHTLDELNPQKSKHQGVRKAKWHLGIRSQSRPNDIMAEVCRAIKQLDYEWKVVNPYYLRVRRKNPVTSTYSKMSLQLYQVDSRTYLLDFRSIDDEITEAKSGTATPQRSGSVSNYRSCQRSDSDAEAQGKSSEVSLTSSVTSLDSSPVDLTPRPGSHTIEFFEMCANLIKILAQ"}, "cKit(V560G)(h) (human)": {"target": "cKit(V560G)(h) (human) (UniProt P10721)", "sequence (P10721 544-976 V560G)": "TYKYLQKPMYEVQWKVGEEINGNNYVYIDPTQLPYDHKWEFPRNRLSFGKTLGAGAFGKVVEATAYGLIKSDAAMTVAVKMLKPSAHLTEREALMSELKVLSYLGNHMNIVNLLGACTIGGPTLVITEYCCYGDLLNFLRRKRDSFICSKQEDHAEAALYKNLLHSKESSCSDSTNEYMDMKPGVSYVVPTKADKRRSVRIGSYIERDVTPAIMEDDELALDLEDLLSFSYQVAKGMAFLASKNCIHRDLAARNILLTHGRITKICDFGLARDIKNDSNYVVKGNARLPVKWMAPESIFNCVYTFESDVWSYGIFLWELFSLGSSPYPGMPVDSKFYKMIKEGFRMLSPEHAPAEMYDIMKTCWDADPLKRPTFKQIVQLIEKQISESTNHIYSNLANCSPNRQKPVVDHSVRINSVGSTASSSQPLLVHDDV"}, "CDK2/cyclinA(h) (human)": {"target": "CDK2/cyclinA(h) (human) (UniProt P24941)"}, "NEK11(h) (human)": {"target": "T1, NEK11(h) (human) (UniProt Q8NG66)", "T1 sequence (looked up)": "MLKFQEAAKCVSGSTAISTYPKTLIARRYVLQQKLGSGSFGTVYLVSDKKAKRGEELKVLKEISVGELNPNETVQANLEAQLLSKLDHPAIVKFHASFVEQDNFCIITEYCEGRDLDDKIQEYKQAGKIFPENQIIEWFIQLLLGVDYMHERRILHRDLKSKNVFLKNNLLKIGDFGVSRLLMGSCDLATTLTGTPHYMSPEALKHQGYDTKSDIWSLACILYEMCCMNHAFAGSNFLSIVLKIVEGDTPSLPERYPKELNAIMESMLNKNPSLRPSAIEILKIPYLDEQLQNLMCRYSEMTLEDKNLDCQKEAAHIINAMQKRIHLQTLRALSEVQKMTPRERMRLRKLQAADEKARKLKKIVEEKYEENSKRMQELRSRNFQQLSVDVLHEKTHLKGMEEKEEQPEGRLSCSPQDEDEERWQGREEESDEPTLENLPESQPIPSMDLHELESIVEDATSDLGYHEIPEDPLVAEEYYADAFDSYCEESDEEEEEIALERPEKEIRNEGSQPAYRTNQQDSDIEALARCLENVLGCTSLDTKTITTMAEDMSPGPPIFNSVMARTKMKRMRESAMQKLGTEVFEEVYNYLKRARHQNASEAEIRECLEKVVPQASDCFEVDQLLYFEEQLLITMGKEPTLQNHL"}, "Snk(h) (human)": {"target": "Snk(h) (human) (UniProt Q9NYY3)", "sequence (Q9NYY3 whole entry)": "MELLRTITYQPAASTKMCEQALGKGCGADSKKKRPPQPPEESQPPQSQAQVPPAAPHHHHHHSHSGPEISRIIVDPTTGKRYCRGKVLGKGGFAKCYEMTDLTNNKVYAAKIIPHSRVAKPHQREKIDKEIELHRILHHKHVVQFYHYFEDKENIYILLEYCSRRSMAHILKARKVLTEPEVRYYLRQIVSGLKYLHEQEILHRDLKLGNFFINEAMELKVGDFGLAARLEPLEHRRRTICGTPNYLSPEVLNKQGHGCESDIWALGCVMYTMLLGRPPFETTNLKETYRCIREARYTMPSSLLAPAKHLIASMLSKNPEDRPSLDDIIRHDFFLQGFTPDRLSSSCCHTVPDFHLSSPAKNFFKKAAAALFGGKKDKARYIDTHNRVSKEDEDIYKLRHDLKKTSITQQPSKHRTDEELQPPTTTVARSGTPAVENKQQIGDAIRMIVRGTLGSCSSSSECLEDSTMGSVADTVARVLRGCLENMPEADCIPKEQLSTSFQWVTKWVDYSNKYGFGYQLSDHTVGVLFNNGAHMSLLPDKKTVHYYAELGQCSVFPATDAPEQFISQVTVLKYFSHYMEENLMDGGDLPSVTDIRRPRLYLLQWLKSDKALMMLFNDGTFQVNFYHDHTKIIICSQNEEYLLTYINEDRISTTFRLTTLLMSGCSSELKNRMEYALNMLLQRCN"}, "LOK(h) (human)": {"target": "LOK(h) (human) (UniProt O94804)", "sequence (O94804 1-348 limits assumed)": "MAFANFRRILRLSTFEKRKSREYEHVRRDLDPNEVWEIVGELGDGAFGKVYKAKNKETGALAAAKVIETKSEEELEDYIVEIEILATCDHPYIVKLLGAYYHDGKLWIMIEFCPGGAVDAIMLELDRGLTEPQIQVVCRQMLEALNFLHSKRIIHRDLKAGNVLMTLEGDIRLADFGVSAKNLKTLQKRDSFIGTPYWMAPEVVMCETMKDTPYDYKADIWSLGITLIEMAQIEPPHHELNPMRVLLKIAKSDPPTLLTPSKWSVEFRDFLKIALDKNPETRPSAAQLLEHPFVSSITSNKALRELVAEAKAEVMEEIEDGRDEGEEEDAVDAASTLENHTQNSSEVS"}, "Abl(M351T)(h) (human)": {"target": "Abl(M351T)(h) (human) (UniProt P00519)", "sequence (P00519 27-1130 M351T limits assumed)": "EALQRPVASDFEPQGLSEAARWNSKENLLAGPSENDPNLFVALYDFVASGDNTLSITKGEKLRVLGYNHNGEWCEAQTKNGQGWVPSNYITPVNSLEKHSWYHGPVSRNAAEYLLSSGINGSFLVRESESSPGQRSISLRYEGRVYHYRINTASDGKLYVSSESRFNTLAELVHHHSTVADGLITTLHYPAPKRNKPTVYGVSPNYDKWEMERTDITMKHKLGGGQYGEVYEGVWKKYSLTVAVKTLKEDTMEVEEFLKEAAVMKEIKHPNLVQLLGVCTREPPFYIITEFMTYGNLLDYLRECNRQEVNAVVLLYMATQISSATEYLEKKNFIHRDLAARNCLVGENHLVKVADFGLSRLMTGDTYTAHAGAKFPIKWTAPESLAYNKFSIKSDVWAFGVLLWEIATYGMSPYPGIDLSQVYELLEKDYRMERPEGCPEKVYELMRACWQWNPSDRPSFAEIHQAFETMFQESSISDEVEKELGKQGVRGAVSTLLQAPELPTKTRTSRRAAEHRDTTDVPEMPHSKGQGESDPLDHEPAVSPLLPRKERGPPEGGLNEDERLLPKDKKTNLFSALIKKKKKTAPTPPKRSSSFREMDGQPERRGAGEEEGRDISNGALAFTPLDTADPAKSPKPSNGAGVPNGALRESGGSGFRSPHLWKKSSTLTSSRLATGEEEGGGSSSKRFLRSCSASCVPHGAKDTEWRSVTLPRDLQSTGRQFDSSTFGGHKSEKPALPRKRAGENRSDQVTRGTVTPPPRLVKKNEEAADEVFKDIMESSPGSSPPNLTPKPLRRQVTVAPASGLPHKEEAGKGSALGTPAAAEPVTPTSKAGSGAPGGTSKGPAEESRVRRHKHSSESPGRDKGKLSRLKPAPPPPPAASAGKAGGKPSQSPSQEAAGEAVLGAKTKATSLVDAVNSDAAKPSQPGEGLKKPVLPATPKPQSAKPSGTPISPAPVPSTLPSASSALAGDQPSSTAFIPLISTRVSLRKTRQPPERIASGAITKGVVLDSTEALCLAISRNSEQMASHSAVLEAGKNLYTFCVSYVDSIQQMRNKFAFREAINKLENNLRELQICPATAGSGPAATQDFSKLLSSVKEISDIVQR"}, "PKG1α(h) (human)": {"target": "PKG1α(h) (human) (UniProt Q13976)", "sequence (Q13976 whole entry)": "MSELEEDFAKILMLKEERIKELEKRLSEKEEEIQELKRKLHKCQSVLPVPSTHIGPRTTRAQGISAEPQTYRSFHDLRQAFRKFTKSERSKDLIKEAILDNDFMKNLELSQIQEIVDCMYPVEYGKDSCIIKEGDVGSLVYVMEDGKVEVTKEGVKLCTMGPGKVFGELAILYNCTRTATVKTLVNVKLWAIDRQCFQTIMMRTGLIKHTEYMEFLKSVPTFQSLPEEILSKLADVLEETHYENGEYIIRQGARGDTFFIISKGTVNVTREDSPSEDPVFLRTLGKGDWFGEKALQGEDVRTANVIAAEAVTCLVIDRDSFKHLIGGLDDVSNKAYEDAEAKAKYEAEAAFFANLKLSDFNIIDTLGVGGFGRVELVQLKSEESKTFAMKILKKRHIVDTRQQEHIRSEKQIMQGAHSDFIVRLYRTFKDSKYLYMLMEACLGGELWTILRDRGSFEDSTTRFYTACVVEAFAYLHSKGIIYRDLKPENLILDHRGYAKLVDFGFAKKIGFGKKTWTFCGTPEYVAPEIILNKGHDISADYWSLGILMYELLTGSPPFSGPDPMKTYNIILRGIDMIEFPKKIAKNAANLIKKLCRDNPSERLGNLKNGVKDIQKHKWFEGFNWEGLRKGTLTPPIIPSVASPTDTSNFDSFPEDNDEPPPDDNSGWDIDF"}, "Ret(h) (human)": {"target": "T2, Ret(h) (human) (UniProt P07949)", "T2 sequence (looked up)": "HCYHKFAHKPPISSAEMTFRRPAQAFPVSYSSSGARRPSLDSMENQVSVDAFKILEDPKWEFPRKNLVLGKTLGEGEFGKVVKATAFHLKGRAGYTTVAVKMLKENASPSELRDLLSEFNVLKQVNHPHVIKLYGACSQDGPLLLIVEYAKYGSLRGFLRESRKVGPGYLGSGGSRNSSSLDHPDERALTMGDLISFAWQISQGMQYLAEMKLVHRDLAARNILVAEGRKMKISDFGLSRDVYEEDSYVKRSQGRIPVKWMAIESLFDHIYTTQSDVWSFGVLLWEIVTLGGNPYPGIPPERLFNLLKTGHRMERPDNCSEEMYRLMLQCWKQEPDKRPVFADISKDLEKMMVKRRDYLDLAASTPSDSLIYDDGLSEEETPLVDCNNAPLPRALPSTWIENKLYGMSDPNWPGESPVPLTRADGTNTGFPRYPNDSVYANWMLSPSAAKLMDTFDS"}, "cSRC(h) (human)": {"target": "cSRC(h) (human) (UniProt P12931)"}, "FGFR1(h) (human)": {"target": "FGFR1(h) (human) (UniProt P11362)", "sequence (P11362 456-765 limits assumed)": "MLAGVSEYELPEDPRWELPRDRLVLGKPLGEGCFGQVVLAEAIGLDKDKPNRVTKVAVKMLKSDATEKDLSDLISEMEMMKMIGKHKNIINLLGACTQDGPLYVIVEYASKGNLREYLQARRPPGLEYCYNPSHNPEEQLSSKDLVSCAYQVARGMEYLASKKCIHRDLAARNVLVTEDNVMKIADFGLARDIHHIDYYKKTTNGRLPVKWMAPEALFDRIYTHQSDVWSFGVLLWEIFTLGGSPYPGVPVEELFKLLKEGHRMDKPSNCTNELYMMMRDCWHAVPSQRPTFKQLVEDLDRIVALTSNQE"}, "SAPK2b(h) (human)": {"target": "SAPK2b(h) (human) (UniProt Q15759)", "sequence (Q15759 whole entry)": "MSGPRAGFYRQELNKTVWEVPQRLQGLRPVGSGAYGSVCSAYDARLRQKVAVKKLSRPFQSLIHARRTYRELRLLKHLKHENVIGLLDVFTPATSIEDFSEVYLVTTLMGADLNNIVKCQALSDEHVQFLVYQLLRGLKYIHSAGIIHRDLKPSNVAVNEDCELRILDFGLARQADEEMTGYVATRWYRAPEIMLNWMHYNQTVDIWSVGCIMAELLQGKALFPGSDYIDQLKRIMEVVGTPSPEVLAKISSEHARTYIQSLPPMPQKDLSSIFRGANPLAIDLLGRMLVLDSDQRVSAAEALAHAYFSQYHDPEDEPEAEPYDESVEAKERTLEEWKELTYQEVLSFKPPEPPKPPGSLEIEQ"}, "PDK1(h) (human)": {"target": "T3, PDK1(h) (human) (UniProt O15530)", "T3 sequence (looked up)": "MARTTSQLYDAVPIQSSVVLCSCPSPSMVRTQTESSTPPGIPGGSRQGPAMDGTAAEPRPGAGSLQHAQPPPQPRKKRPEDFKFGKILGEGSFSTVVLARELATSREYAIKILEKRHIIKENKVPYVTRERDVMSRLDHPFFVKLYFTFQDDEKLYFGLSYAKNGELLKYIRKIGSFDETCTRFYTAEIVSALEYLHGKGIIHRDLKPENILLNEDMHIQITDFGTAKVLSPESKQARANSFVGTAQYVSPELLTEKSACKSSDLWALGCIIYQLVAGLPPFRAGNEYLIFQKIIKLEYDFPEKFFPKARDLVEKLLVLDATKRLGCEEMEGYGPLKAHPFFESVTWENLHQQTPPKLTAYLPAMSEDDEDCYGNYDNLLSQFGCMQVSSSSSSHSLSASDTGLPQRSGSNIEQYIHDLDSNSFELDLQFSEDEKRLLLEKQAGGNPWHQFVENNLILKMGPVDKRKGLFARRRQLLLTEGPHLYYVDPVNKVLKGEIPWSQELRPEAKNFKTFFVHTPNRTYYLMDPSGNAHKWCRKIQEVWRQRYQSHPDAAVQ"}, "GCK(h) (human)": {"target": "T4, GCK(h) (human) (UniProt Q12851)", "T4 sequence (looked up)": "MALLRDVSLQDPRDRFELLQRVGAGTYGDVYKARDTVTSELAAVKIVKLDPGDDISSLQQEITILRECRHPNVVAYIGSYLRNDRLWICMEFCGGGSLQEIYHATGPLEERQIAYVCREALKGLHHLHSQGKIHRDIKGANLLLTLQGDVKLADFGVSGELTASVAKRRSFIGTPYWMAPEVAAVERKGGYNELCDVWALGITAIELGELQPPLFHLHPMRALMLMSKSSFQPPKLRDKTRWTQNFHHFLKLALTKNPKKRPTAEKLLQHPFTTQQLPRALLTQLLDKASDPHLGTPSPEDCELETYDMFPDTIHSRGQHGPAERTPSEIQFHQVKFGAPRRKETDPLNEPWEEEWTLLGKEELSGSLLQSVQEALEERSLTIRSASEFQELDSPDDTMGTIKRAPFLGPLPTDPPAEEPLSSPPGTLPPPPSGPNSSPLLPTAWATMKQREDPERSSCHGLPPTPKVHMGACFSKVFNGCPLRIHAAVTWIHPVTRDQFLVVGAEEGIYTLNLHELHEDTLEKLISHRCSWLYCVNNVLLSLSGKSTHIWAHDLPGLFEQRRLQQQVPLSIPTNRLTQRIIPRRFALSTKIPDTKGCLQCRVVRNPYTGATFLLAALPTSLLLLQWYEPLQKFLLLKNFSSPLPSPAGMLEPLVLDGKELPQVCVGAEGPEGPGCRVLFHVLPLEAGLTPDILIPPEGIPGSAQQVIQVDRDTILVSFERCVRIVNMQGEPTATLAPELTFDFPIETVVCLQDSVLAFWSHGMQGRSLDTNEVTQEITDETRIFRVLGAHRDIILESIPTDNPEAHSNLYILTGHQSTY"}, "Abl(Y253F)(h) (human)": {"target": "Abl(Y253F)(h) (human) (UniProt P00519)", "sequence (P00519 27-1130 Y253F limits assumed)": "as the sequence (P00519 27-1130 M351T limits assumed) above, with Y227F, T325M counted along it"}},
  "data": [
    {"substance": "MMI-0500 (peptide)", "values": [
      {"measurement": "% activity, 100 µM", "setting": "AMPKα1(h) (human)", "result": 35, "unit": "%"},
      {"measurement": "% activity, 100 µM", "setting": "cKit(V560G)(h) (human)", "result": 198, "unit": "%"},
      {"measurement": "% activity, 100 µM", "setting": "CDK2/cyclinA(h) (human)", "result": 87, "unit": "%"},
      {"measurement": "% activity, 100 µM", "setting": "NEK11(h) (human)", "result": 2, "unit": "%"},
      {"measurement": "% activity, 100 µM", "setting": "Snk(h) (human)", "result": 122, "unit": "%"},
      {"measurement": "% activity, 100 µM", "setting": "LOK(h) (human)", "result": 7, "unit": "%"},
      {"measurement": "% activity, 100 µM", "setting": "Abl(M351T)(h) (human)", "result": 61, "unit": "%"},
      {"measurement": "% activity, 100 µM", "setting": "PKG1α(h) (human)", "result": 25, "unit": "%"},
      {"measurement": "% activity, 100 µM", "setting": "Ret(h) (human)", "result": 174, "unit": "%"},
      {"measurement": "% activity, 100 µM", "setting": "cSRC(h) (human)", "result": 30, "unit": "%"},
      {"measurement": "% activity, 100 µM", "setting": "FGFR1(h) (human)", "result": 18, "unit": "%"},
      {"measurement": "% activity, 100 µM", "setting": "SAPK2b(h) (human)", "result": 42, "unit": "%"},
      {"measurement": "% activity, 100 µM", "setting": "PDK1(h) (human)", "result": 178, "unit": "%"},
      {"measurement": "% activity, 100 µM", "setting": "GCK(h) (human)", "result": 30, "unit": "%"},
      {"measurement": "% activity, 100 µM", "setting": "Abl(Y253F)(h) (human)", "result": 29, "unit": "%"}
    ]}
  ]
}
